# Measured values: PMC11234873 (Chemical Science, 2024)
# Test: High-throughput protein phase separation
# Type: physicochemical
# Conditions: 25 μM Hsp90α; 96 LLPS-inducing conditions, sum of averaged grades of 15 subzones
substance,measurement,value
"Hsp90α: full-length human Hsp90α (UniProt P07900), N-terminal 6×-His tag, expressed in E. coli",phase separation score (PPS score),3.1
